Experimental data: publication PMC2955986 (Journal of thrombosis and haemostasis : JTH, 2010)
One block for each molecule: values may come before it.

Tests used:
[1] = molecular target: TFPI (Homo sapiens) (UniProt P10646); details: cited from earlier work
[2] = molecular target: Soluble tissue factor (residues 1-218); assay: fluid phase binding assay
[3] = molecular target: Soluble tissue factor (residues 1-218); assay: fluid phase binding assay; remark: listed apart in the source
[4] = molecular target: Factor X; assay: fluid phase binding assay
[5] = molecular target: Soluble tissue factor (residues 1-218); assay: ELISA
[6] = molecular target: T1, factor X (Homo sapiens, UniProt P00742)
T1 chain: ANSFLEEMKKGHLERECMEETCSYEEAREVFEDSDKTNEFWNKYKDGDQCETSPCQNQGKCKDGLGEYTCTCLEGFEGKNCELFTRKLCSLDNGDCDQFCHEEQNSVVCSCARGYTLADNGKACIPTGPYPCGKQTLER

[7] = molecular target: T2, Zn^2+-containing protein S (immunoaffinity-purified) (UniProt P07225 42-676); assay: fluid phase binding assay
T2 sequence (looked up): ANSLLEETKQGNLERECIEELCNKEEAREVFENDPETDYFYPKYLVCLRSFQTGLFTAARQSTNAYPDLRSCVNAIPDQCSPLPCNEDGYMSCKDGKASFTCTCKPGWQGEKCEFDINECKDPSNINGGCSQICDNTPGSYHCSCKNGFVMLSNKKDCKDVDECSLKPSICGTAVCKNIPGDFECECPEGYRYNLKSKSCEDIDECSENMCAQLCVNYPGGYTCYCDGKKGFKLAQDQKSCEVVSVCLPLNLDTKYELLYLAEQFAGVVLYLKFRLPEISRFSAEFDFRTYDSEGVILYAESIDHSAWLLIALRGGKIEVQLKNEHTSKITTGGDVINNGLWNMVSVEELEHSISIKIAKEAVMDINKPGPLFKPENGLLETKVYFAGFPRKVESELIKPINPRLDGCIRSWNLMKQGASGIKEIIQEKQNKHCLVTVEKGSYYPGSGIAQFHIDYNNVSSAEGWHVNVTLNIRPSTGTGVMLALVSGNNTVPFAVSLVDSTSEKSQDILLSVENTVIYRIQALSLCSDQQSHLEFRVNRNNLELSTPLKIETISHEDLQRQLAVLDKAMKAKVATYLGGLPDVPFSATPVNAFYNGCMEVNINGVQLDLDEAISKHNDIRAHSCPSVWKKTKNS

Sequence of TFPI (Homo sapiens) (P10646 29-304): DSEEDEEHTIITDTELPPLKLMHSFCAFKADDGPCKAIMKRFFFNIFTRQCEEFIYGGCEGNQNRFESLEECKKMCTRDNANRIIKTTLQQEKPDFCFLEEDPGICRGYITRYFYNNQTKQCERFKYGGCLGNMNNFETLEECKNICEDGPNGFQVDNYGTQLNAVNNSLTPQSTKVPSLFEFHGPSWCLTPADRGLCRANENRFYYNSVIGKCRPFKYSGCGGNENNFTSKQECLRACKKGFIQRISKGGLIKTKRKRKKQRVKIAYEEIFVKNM

Kd [2]: 41 nM | Kd [3]: 41 nM | Kd [4]: 127 nM
B1: Zn^2+-containing protein S (immunoaffinity-purified) (natural protein)
chain: T2 sequence (looked up)

Kd [5]: 39 nM
B2: Zn^2+-reconstituted commercial protein S (natural protein)
chain: T2 sequence (looked up)

Kd [6]: ~130 nM
B3: protein S (protein)
chain: T2 sequence (looked up)
modifications: Zn2+-containing

More lines, now with the values behind:

Molecule: protein S (from UniProt P07225)
Kd [1]: 21 nM

B4: Full length nonlipidated tissue factor (natural protein, UniProt P13726 33-295, looked up)
chain: SGTTNTVAAYNLTWKSTNFKTILEWEPKPVNQVYTVQISTKSGDWKSKCFYTTDTECDLTDEIVKDVKQTYLARVFSYPAGNVESTGSAGEPLYENSPEFTPYLETNLGQPTIQSFEQVGTKVNVTVEDERTLVRRNNTFLSLRDVFGKDLIYTLYYWKSSSSGKKTAKTNTNEFLIDVDKGENYCFSVQAVIPSRTVNRKSTDSPVECMGQEKGEFREIFYIIGAVVFVVIILVIILAISLHKCRKAGVGQSWKENSPLNVS
Kd [7]: 41 nM
